Measurements reported in the supplement of paper PMC9732359.
± gives the uncertainty stated by the source.

Experiment: protein stability index of a GFP-peptide fusion (yeast GPS) (PSI 1-4); higher = more stable; sorted into four equal gates, so the index is relative within each strain
Method in brief: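 The protein stability index of a peptide was calculated by multiplying its read frequency in each gate by that gate's number and adding the products. The peptides were tiled 17-residue stretches of yeast proteins, fused downstream of GFP on a Cherry-expressing plasmid and carried in yeast as a pooled library. Mid-log cultures in leucine-free medium were sorted into four equal gates by GFP/Cherry ratio, and each gate's plasmids were PCR-amplified and Illumina-sequenced.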

Sequence	protein stability index (doa10∆)	protein stability index (pdr5∆)	protein stability index (san1∆)	protein stability index (ubr1∆)
ENPDLSTKKKILGIHTS [RPT2]	2.8 ± 0.14	3.02 ± 0.24	2.98 ± 0.087	2.9 ± 0.15
VTVHSLTGEATANALPL [RPL4A]	2.75 ± 0.069	2.76 ± 0.053	2.17 ± 0.052	2.86 ± 0.041
EKQIEELLDNCIETFVA [SRB6]	2.62 ± 0.13	–	3.19 ± 0.16	3.32 ± 0.12
NFPDEDDDDSRKSAPVD [SKP1]	3.09 ± 0.046	3.2 ± 0.047	3.31 ± 0.04	3.27 ± 0.041
GGTNEDDFTDAIQFVKE [YCS4]	2.35 ± 0.14	2.6 ± 0.15	3.39 ± 0.07	3.69 ± 0.19
PYAIIKGKARLGTLVNQ [RPL8B]	1.83 ± 0.058	1.99 ± 0.06	1.28 ± 0.063	2 ± 0.053
ADEMGLGKTIQTISLLT [SNF2]	1.73 ± 0.092	2.5 ± 0.086	2.46 ± 0.08	2.41 ± 0.075
TYSFIDNDRFNVVGKLI [YML103C/NUP188]	2.34 ± 0.058	2.27 ± 0.06	2.07 ± 0.072	2.16 ± 0.04
NNSEQDQEIVIQQLHSV [ISW2]	2.48 ± 0.06	2.59 ± 0.071	2.2 ± 0.096	2.53 ± 0.038
EYIFEAHEIIKREEKAM [CDC53]	1.77 ± 0.039	2.39 ± 0.088	2.54 ± 0.086	2.28 ± 0.043
TLVHTRVKIANTSAATV [SSN2]	2.35 ± 0.056	2.31 ± 0.046	2.32 ± 0.044	2.57 ± 0.035
MMCDFGTGNNNKLNFIV [DIB1]	1.13 ± 0.084	1.22 ± 0.048	1.96 ± 0.15	1.6 ± 0.061
LREAPADYWTHAYRDVL [SNF6]	2.55 ± 0.12	2.7 ± 0.1	3.42 ± 0.17	2.38 ± 0.061
SLPRFSKPVLIVGQKNL [DIS3]	2.2 ± 0.089	2.42 ± 0.074	1.77 ± 0.082	1.7 ± 0.12
ITSIMDDLALPYQHPPN [ITC1]	3.17 ± 0.084	3.34 ± 0.076	3.08 ± 0.078	3.22 ± 0.048
QTSRGLFGNNNTNNINN [YGL172W/NUP49]	3.1 ± 0.18	3.04 ± 0.13	3.13 ± 0.16	3.14 ± 0.16
RTPVPSTLMPGGVDVGP [SNF5]	–	3 ± 0.15	2.73 ± 0.17	–
HFFKWIEFIVYHQLLSD [SRB8]	1.45 ± 0.05	1.3 ± 0.046	2.03 ± 0.08	1.2 ± 0.041
GKIVGFDEFMNVVIDEA [SME1]	3.26 ± 0.063	3.33 ± 0.064	3.36 ± 0.056	3.39 ± 0.05
SRPATTTRNGFMEAQGA [FAS2]	2.28 ± 0.049	2.18 ± 0.046	2.48 ± 0.065	2.21 ± 0.039
ITKVTENLFSKEEVCQG [YMR129W/POM152]	2.95 ± 0.085	2.77 ± 0.092	2.97 ± 0.074	3.06 ± 0.082
TVKRGAAGIWTCSCCKK [RPL43A]	1.68 ± 0.085	1.74 ± 0.058	1.74 ± 0.11	1.94 ± 0.062
LQWHAMIELICSSATVP [AAR2]	1.55 ± 0.084	1.69 ± 0.073	1.59 ± 0.11	1.75 ± 0.057
KALDNACGAFININEFA [CDC53]	2.56 ± 0.12	3 ± 0.14	2.71 ± 0.094	2.82 ± 0.15
MREITETIAEAKKKVLD [RPO21]	3.5 ± 0.13	3.42 ± 0.09	3.42 ± 0.037	3.24 ± 0.091
GTSVYLVDKRIDMLPML [DIS3]	1.89 ± 0.18	–	–	2.12 ± 0.25

Sequence	protein stability index (doa10∆)	protein stability index (pdr5∆)	protein stability index (san1∆)	protein stability index (ubr1∆)
EFRSAAGQLALDLANSG [YDL116W/NUP84]	2.79 ± 0.14	–	2.82 ± 0.14	3 ± 0.12
EKLNKTDENTPSADGAD [ITC1]	3.35 ± 0.098	3.29 ± 0.061	3.01 ± 0.054	3.05 ± 0.05
EFLFESLKNDLPQFRSS [ECM29]	2.93 ± 0.087	3.1 ± 0.092	3.28 ± 0.082	3 ± 0.11
DYKTAFSYFFESFESYH [RPN6]	2.37 ± 0.058	2.77 ± 0.065	2.59 ± 0.067	2.55 ± 0.033
QDDDFPLDDAGTIGWDL [MCD1]	3.04 ± 0.08	3.25 ± 0.081	3.36 ± 0.06	3.06 ± 0.068
LGNVIVPNILSLDMNSM [NUT1]	2.16 ± 0.06	2.17 ± 0.058	2.04 ± 0.093	2.27 ± 0.051
EIEQNTELLDEFIAAVN [RPN10]	3.36 ± 0.082	3.32 ± 0.11	2.79 ± 0.099	3.16 ± 0.082
DVFNLLPNLGTPDDDEI [RPN8]	1.96 ± 0.071	2.02 ± 0.079	1.43 ± 0.12	1.43 ± 0.056
VVSAVGEARNDIENKEE [YAR002W/NUP60]	2.92 ± 0.056	3.17 ± 0.066	3.08 ± 0.041	2.9 ± 0.076
SVFGFRTQFGGGKSVGF [RPS24A]	2.56 ± 0.13	2.23 ± 0.076	3.31 ± 0.076	2.77 ± 0.088
GENDDDTLDGDLMDDMS [RPN3]	2.73 ± 0.17	2.7 ± 0.075	2.11 ± 0.12	2.15 ± 0.1
VFMLDTKRLGTPESVKP [RGR1]	2.55 ± 0.075	2.64 ± 0.091	2.54 ± 0.11	2.8 ± 0.086
EGEKCHPQDFGNPGRIR [SEC65]	3.03 ± 0.076	2.76 ± 0.066	2.81 ± 0.057	3.08 ± 0.047
FESLYNSNDSVFVGSGK [BRR2]	3.24 ± 0.098	3.18 ± 0.11	2.97 ± 0.13	3.15 ± 0.11
NALHTERLHELKKLQSD [SMC1]	3.59 ± 0.078	3.38 ± 0.12	3.18 ± 0.095	3.48 ± 0.1
IMATNRLDILDPALLRP [RPT6]	2.92 ± 0.1	3.13 ± 0.092	2.81 ± 0.065	3.25 ± 0.057
IPHDLNFLQESYEVEHV [TAF14]	3.16 ± 0.096	3.33 ± 0.087	2.85 ± 0.07	3.12 ± 0.056
VLIKKGQSAGKLAAIVE [RPL14A]	2.99 ± 0.2	3.14 ± 0.16	–	2.77 ± 0.18
NQLVEPNRIKLSKEVPF [SRB5]	2.42 ± 0.038	2.44 ± 0.037	2.46 ± 0.042	2.23 ± 0.025
YGILSIDDLIHEIITVG [RPL7A]	2.36 ± 0.079	2.37 ± 0.1	2.58 ± 0.11	1.56 ± 0.061
QMTQIMDIMEDFLRYIN [SNF2]	1.21 ± 0.032	1.33 ± 0.034	1.4 ± 0.08	1.43 ± 0.027
SKNMSKSPSLTAQKYPI [YMR153W/NUP53]	2.46 ± 0.051	2.46 ± 0.044	2.48 ± 0.055	2.51 ± 0.043
SVARVEDHDVHSNESSN [IRR1]	2.7 ± 0.059	2.99 ± 0.061	3.01 ± 0.052	2.81 ± 0.058
EIKKMIITNINAIFLSS [YCG1]	2.49 ± 0.11	1.94 ± 0.088	1.8 ± 0.081	1.81 ± 0.12
VSLCAKNMGLVPMKEEN [SSN2]	1.89 ± 0.086	2.38 ± 0.075	1.99 ± 0.11	2.26 ± 0.093
VPTIGVVNSNFAKEHNA [YJR042W/NUP85]	2.51 ± 0.072	2.61 ± 0.075	2.59 ± 0.058	2.54 ± 0.034
